In patent US11492610B2, “Sample multiplexing for single-cell RNA sequencing” (California Institute of Technology, priority 2018, dated 2022):

System: mouse neural stem cells (NSCs)
Assay: 96-plex scRNA-seq perturbation experiment (96-sample growth factor screen)
Assay type: cell-based
Method: Neural stem cells for 96-sample growth factor screen were cultured according to the following protocol after previously described cell culture plate reached ˜80% confluence: Stock solutions (10×) were prepared in Neural Stem Cell Basal Medium for every factor and at every concentration used: EGF+bFGF at 200 ng/mL, 40 ng/mL, 8 ng/mL, 1.6 ng/mL; BMP4 (Peprotech) at 200 ng/mL, 40 ng/mL, 8 ng/mL, 0 ng/mL; Retinoic Acid (Sigma) at 10 μM, 2 μM, 0 μM; Scriptaid (Selleckchem)/Decitabine (Selleckchem) at 1 μM/5 μM, 0.2 μM/1 μM, 0 μM/0 μM; Heparin at 20 μg/mL+Penicillin-Streptomycin at 10%. 20 μL each of EGF/bFGF, BMP4, Retinoic acid or Scriptaid/Decitabine, and Heparin/Penicillin-Streptomycin were added to each well of a poly-L-ornithine and laminin coated 96-well plate for a total of 80 μL.
NSCs previously plated on 100 mm culture plates until ˜80% confluent were dissociated by incubation in 4 mL of ESGRO Complete Accutase (Millipore) for 2 minutes at 37° C. After incubation, the Accutase and NSCs were transferred to a 15 mL conical tube and centrifuged at room temperature for 2.5 minutes at 200×g. Supernatant was removed and the cell pellet was resuspended in 2 mL Neural Stem Cell Basal Medium. Centrifugation and medium replacement were repeated one more time and cell concentration was counted on the Countess II Automated Cell Counter. The cell suspension was then diluted with additional Neural Stem Cell Basal Medium to a concentration of 18.3 cells/μL. From this stock 120 μL was added to each well of the 96-well plate for a total of ˜2,200 cells/well. Supplemented media for every well in the 96-well plate was replaced every other day during the 5-day incubation.
Before NSC dissociation and fixation, 80 μL of ice-cold methanol was added to each well of twelve 8-well PCR strips on an ice block. After 5 days in culture, all media in the 96-well plate were removed and the cells washed three times with 150 μL of Neural Stem Cell Basal Medium. Any remaining media were removed and replaced with 20 μL of Accutase and incubated at 37° C. for 2 minutes with gentle pipetting to help break cell clumps. […]
Cells for the 96-sample perturbation experiment were prepared as described above. […] Sequencing libraries were prepared as described, with sample tag libraries sequenced on two lanes of Illumina MiSeq using MiSeq v3 150 cycle kits (26×98 bp reads), and cDNA libraries pooled and sequenced on Illumina HiSeq 4000 using two HiSeq 3000/4000 SBS 300 cycle kits (2×150 bp reads).
For the 96-sample perturbation experiment, the ScanPy Python package (version 1.0.4) was used to process the filtered genes×cells matrix produced by cellranger. […] The per-cell read counts were regressed out and the data scaled to unit variance. […]

B1: BMP4: bone morphogenic protein 4 (BMP4), Peprotech (protein, UniProt P12644 293-408, looked up)
Bone morphogenetic protein 4: SPKHHSQRARKKNKNCRRHSLYVDFSDVGWNDWIVAPPGYQAFYCHGDCPFPLADHLNSTNHAIVQTLVNSVNSSIPKACCVPTELSAISMLYLDEYDKVVLKNYQEMVVEGCGCR
B1 was tested, and the “cell proliferation / phenotype across the perturbation array” value (Example 2 analysis, FIG. 3E, 5A) was “high proliferation under low BMP4 conditions”, the “effect on cell populations, PCA of relative cluster abundance × sample matrix” value (Example 2 analysis, FIG. 5B) was “graded effect” and the “cell proliferation / phenotype across the perturbation array” value (Example 5 re-analysis (UMAP), FIG. 24, 27) was “high proliferation under low BMP4 conditions”. For the same molecule, the “effect on cell populations, PCA of relative cluster abundance × sample matrix” value (Example 5 re-analysis (UMAP), FIG. 24B) was “graded effect”.
